Results taken from doi:10.1101/2023.08.30.555639.
pKd: −log10 of the molar value. Where two headings read alike, the source gives them in different places.

What was measured:
[1] = molecular target: disulfide-linked BTN2A1 ectodomain homodimer (Cys247, leucine zippers) (human) (UniProt Q7KYR7); experiment: SPR
[2] = molecular target: soluble BTN3A1 ectodomain (IgV–IgC), homodimeric (human) (UniProt O00481); experiment: SPR
[3] = molecular target: soluble BTN2A1–BTN3A1–zipper ectodomain complex (wild type) (human) (UniProt Q7KYR7); experiment: SPR
[4] = molecular target: BTN3A1 Ser42-Ala on transfected NIH-3T3 cells (human) (UniProt O00481); experiment: flow cytometry on cells
[5] = molecular target: BTN3A1 Leu96-Ala on transfected NIH-3T3 cells (human) (UniProt O00481); experiment: flow cytometry on cells
[6] = molecular target: BTN3A1 Phe26-Ala on transfected NIH-3T3 cells (human) (UniProt O00481); experiment: flow cytometry on cells
[7] = molecular target: BTN3A1 Lys37-Ala on transfected NIH-3T3 cells (human) (UniProt O00481); experiment: flow cytometry on cells
[8] = molecular target: soluble BTN2A1^WT–BTN3A1^Glu106-Ala zipper ectodomain complex (human) (UniProt Q7KYR7); experiment: SPR
[9] = molecular target: soluble BTN2A1–BTN3A1–zipper ectodomain complex (wild type) (human) (UniProt Q7KYR7); experiment: SPR; remark: listed apart in the source

pKd [1] | pKd [2] | pKd [3] | Substance | further results
2.96 |  |  | monomeric BTN3A1 IgV domain (domain or fragment) | 
 | 2.74 |  | soluble BTN2A1 ectodomain lacking Cys247 (monomeric) (from UniProt Q7KYR7 29-248) (domain or fragment) | 
 |  | 3.13 | soluble G115 Vγ9Vδ2^+ TCR His85γ-Ala | 
 | < 2.92 | 4.34 | soluble G115 Vγ9Vδ2^+ TCR Lys53δ-Ala | 
4.00 | < 2.40 | 4.10 | soluble Vγ9Vδ2^+ γδTCR clone G115, wild type | reduction of G115 tetramer staining against wild-type BTN3A1 [4]: > 90%; reduction of G115 tetramer staining against wild-type BTN3A1 [5]: > 90%; reduction of G115 tetramer staining against wild-type BTN3A1 [6]: > 90%; reduction of G115 tetramer staining against wild-type BTN3A1 [7]: > 90%; pKd [8]: 4.43; pKd [9]: 4.07
